The values that follow come from patent US20190135918A1 (ICHNOS SCIENCES, published 2019).

In assay [1] the target is T1, human CD38 on cells (human, UniProt P28907 1-300). Put plainly: cell-based or functional assay.
The target in assay [2] is T2, soluble extracellular region of human CD38 fused to a 6-His-tag (human, UniProt P28907 43-300).
T2 construct: Expressed with the murine VJ2C leader; also called human CD38 protein; human CD38 antigen
Put plainly: SPR, antibody captured on protein G, CD38 injected. For orientation: Surface plasmon resonance follows binding to a sensor surface in real time, without labels.

Assay [3] has as its target T1, human CD38 on cells. Put plainly: cell-based or functional assay. The source holds these as a separate data set.
For assay [4], the target named is T3, soluble extracellular region of cynomolgus monkey CD38 antigen fused to a 6-His-tag (cynomolgus monkey, UniProt Q5VAN0 45-301).
T3 construct: also called cynomolgus CD38
Put plainly: SPR.

In assay [5] the target is T2, soluble extracellular region of human …. Put plainly: SPR.
The next assay addresses T4, Protein G (UniProt P06654 228-352).
T4 construct: also called protein G chromatography
The assay can be described thus: protein G affinity chromatography, eluate (G) and flow-through (G ft) on non-reducing SDS-PAGE.

The target of the next assay is T5, Protein A (Staphylococcus aureus, UniProt P38507 37-327).
T5 construct: Resin ligands (MabSelect, MabSelect SuRe) are recombinant or engineered forms; also called protein A chromatography
Put plainly: protein A affinity chromatography, eluate (A) and flow-through (A ft) on non-reducing SDS-PAGE.

Assay [6] addresses T6, human CD3 epsilon on cells (human, UniProt P07766 23-207).
T6 construct: whole, on cells; On cells it stands in the CD3/TCR complex; also called HPB-ALL cells (human CD3 epsilon positive T cell tumour line); CD3 on human T cells
Put plainly: FACS staining of HPB-ALL cells, scFv-Fc format, graded relative to chimeric OKT3.
Procedure: HPB-ALL cells (DSMZ, Braunschweig, Germany, Cat. No: ACC483) were used as CD3 positive cell line for FACS staining. […] After washing, cells were incubated with a 1/200 dilution of anti-Human Fc-PE (EBioscience, Vienna, Austria) for 45 min on ice. Cells were then washed again and resuspended in 200 ul FACS buffer.

Assay [7] addresses T3, soluble extracellular region of …. The assay can be described thus: SPR (summary table, row 'KD cynomolgus monkey CD38 (nM)').

T4 sequence (P06654 228-352): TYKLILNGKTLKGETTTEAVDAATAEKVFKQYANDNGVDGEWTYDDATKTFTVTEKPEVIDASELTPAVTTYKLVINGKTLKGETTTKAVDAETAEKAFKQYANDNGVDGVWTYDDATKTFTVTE

B1: BEAT CD38-9G7Mouse/CD3 (bispecific antibody, human IgG1, kappa, L234A L235A)
heavy: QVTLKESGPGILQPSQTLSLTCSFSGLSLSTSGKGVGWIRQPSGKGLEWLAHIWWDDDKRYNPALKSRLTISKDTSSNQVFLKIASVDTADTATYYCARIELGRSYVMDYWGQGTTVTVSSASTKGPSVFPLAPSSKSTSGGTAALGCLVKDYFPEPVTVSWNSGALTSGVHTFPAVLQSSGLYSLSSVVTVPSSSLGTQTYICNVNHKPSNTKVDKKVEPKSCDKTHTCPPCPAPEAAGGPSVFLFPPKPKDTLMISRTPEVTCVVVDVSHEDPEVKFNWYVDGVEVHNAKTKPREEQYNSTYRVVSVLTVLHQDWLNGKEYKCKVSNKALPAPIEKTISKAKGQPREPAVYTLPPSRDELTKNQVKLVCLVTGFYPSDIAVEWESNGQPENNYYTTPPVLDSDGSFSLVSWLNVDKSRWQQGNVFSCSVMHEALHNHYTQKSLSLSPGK
light: DIVMTQSHKFMSTSVGDRVSISCKASQDVITSVAWFQQKPGQSPKLLIYSASYRYTGVPDRFTGSGSGTDFTFTISSVQAEDLAVYYCQQHYTIPLTFGAGTKLELKRTVAAPSVFIFPPSDEQLKSGTASVVCLLNNFYPREAKVQWKVDNALQSGNSQESVTEQDSKDSTYSLSSTLTLSKADYEKHKVYACEVTHQGLSSPVTKSFNRGEC
chain: EVQLVESGGGLVQPGGSLRLSCAASGYTFTRYTMHWVRQAPGKGLEWIGYINPSRGYTYYADSVKGRFTLSTDKSKNTAYLQMSSLRAEDTAVYYCARYYDDHYCLDYWGQGTLVTVSSGGGGSGGGGSGGGGSDIQLTQSPSSLSASVGDRVTITCRASSSVSYVAWYQQKPGKAPKRWIYDTSKLYSGVPSRFSGSGSGTDYTLTISSLQPEDFATYYCQQWSSNPPTFGQGTKVEIKGGGGTDKTHTCPPCPAPEAAGGPSVFLFPPKPKDTLMISRTPEVTCVVVDVSHEDPEVQFKWYVDGVEVHNAKTKPREEQYNSTFRVVSVLTVLHQDWLNGKEYKCKVSNKALPAPIEKTISKTKGQPREPEVATFPPSREEMTKNQVTLVCLVTGFYPSDIAVEWESSGQPENNYNTDPPLLESDGSFALSSRLRVDKSRWQQGNIFSCSVMHEALHNRFTQKSLSLSPGK
Consider B1, for which the “killing assay against Daudi cells, flow cytometry readout, EC50 (pM)” value in the assay with human CD38 on cells [1] was 3.2 pM.

B2: BEAT CD38-OKT10Mouse/CD3 (bispecific antibody, human IgG1, kappa, L234A L235A)
heavy: QVELVESGGSLKLSCAASGFDFSRSWMNWVRQAPGKGLEWIGEINPDSSTINYTTSLKDKFIISRDNAKNTLYLQMTKVRSEDTALYYCARYGNWFPYWGQGTLVTVSSASTKGPSVFPLAPSSKSTSGGTAALGCLVKDYFPEPVTVSWNSGALTSGVHTFPAVLQSSGLYSLSSVVTVPSSSLGTQTYICNVNHKPSNTKVDKKVEPKSCDKTHTCPPCPAPEAAGGPSVFLFPPKPKDTLMISRTPEVTCVVVDVSHEDPEVKFNWYVDGVEVHNAKTKPREEQYNSTYRVVSVLTVLHQDWLNGKEYKCKVSNKALPAPIEKTISKAKGQPREPAVYTLPPSRDELTKNQVKLVCLVTGFYPSDIAVEWESNGQPENNYYTTPPVLDSDGSFSLVSWLNVDKSRWQQGNVFSCSVMHEALHNHYTQKSLSLSPGK
light: DILMTQSQKIMPTSVGDRVSVTCKASQNVDTNVAWYQQKPGQSPKALIYSASYRYSGVPDRFTGSGSGTDFTLTITNVQSEDLAEYFCQQYDSYPLTFGAGTKLDLKRTVAAPSVFIFPPSDEQLKSGTASVVCLLNNFYPREAKVQWKVDNALQSGNSQESVTEQDSKDSTYSLSSTLTLSKADYEKHKVYACEVTHQGLSSPVTKSFNRGE
chain: EVQLVESGGGLVQPGGSLRLSCAASGYTFTRYTMHWVRQAPGKGLEWIGYINPSRGYTYYADSVKGRFTLSTDKSKNTAYLQMSSLRAEDTAVYYCARYYDDHYCLDYWGQGTLVTVSSGGGGSGGGGSGGGGSDIQLTQSPSSLSASVGDRVTITCRASSSVSYVAWYQQKPGKAPKRWIYDTSKLYSGVPSRFSGSGSGTDYTLTISSLQPEDFATYYCQQWSSNPPTFGQGTKVEIKGGGGTDKTHTCPPCPAPEAAGGPSVFLFPPKPKDTLMISRTPEVTCVVVDVSHEDPEVQFKWYVDGVEVHNAKTKPREEQYNSTFRVVSVLTVLHQDWLNGKEYKCKVSNKALPAPIEKTISKTKGQPREPEVATFPPSREEMTKNQVTLVCLVTGFYPSDIAVEWESSGQPENNYNTDPPLLESDGSFALSSRLRVDKSRWQQGNIFSCSVMHEALHNRFTQKSLSLSPGK
With B2, the “killing assay against Daudi cells, flow cytometry readout, EC50 (pM)” value in the assay with human CD38 on cells [1] turned out to be 126 pM.

B3: BEAT CD38-HB7bestfit/CD3 antibody (bispecific antibody, human IgG1, kappa, L234A L235A)
heavy: QVQLQESGPGLVKPSETLSLTCTVSGFSLISYGVHWVRQPPGKGLEWLGVIWRGGSTDYNAAFMSRLTISKDNSKNQVSLKLSSVTAADTAVYFCAKTLITTGYAMDYWGQGTLVTVSSASTKGPSVFPLAPSSKSTSGGTAALGCLVKDYFPEPVTVSWNSGALTSGVHTFPAVLQSSGLYSLSSVVTVPSSSLGTQTYICNVNHKPSNTKVDKKVEPKSCDKTHTCPPCPAPEAAGGPSVFLFPPKPKDTLMISRTPEVTCVVVDVSHEDPEVKFNWYVDGVEVHNAKTKPREEQYNSTYRVVSVLTVLHQDWLNGKEYKCKVSNKALPAPIEKTISKAKGQPREPAVYTLPPSRDELTKNQVKLVCLVTGFYPSDIAVEWESNGQPENNYYTTPPVLDSDGSFSLVSWLNVDKSRWQQGNVFSCSVMHEALHNHYTQKSLSLSPGK
light: DIQLTQSPSSLSASVGDRVTITCRASEDIYNRLAWYQQKPGKAPKLLISGATSLETGVPSRFSGSGSGKDYTLTISSLQPEDFATYYCQQYWSTPTFGQGTKLEIKRTVAAPSVFIFPPSDEQLKSGTASVVCLLNNFYPREAKVQWKVDNALQSGNSQESVTEQDSKDSTYSLSSTLTLSKADYEKHKVYACEVTHQGLSSPVTKSFNRGEC
chain: EVQLVESGGGLVQPGGSLRLSCAASGYTFTRYTMHWVRQAPGKGLEWIGYINPSRGYTYYADSVKGRFTLSTDKSKNTAYLQMSSLRAEDTAVYYCARYYDDHYCLDYWGQGTLVTVSSGGGGSGGGGSGGGGSGGGASDIQLTQSPSSLSASVGDRVTITCRASSSVSYVAWYQQKPGKAPKRWIYDTSKLYSGVPSRFSGSGSGTDYTLTISSLQPEDFATYYCQQWSSNPPTFGQGTKVEIKGGGGTDKTHTCPPCPAPEAAGGPSVFLFPPKPKDTLMISRTPEVTCVVVDVSHEDPEVQFKWYVDGVEVHNAKTKPREEQYNSTFRVVSVLTVLHQDWLNGKEYKCKVSNKALPAPIEKTISKTKGQPREPEVATFPPSREEMTKNQVTLVCLVTGFYPSDIAVEWESSGQPENNYNTDPPLLESDGSFALSSRLRVDKSRWQQGNIFSCSVMHEALHNRFTQKSLSLSPGK
notes: Anti-CD38 FAB arm and anti-CD3 epsilon scFv BEAT heavy chain (third chain)
As usually defined, the Kd is the free concentration of one partner at which half of the binding sites on the other are occupied at equilibrium, for simple one-to-one binding. B3 came in with an equilibrium dissociation constant (Kd) in assay [2] of 3.2 nM. Besides, the “T cell redirected killing of RPMI 8226 myeloma cells, RDL-FACS method, EC50” value in the assay with human CD38 on cells [3] is 0.0022 nM.

B4: BEAT CD38-HB7bestfit/CD3(SP34) antibody (bispecific antibody)
heavy: QVQLQESGPGLVKPSETLSLTCTVSGFSLISYGVHWVRQPPGKGLEWLGVIWRGGSTDYNAAFMSRLTISKDNSKNQVSLKLSSVTAADTAVYFCAKTLITTGYAMDYWGQGTLVTVSSASTKGPSVFPLAPSSKSTSGGTAALGCLVKDYFPEPVTVSWNSGALTSGVHTFPAVLQSSGLYSLSSVVTVPSSSLGTQTYICNVNHKPSNTKVDKKVEPKSCDKTHTCPPCPAPEAAGGPSVFLFPPKPKDTLMISRTPEVTCVVVDVSHEDPEVQFKWYVDGVEVHNAKTKPREEQYNSTFRVVSVLTVLHQDWLNGKEYKCKVSNKALPAPIEKTISKTKGQPREPAVYTLPPSREEMTKNQVKLVCLVTGFYPSDIAVEWESSGQPENNYYTTPPMLDSDGSFSLVSWLNVDKSRWQQGNIFSCSVMHEALHNRFTQKSLSLSPGK
light: DIQLTQSPSSLSASVGDRVTITCRASEDIYNRLAWYQQKPGKAPKLLISGATSLETGVPSRFSGSGSGKDYTLTISSLQPEDFATYYCQQYWSTPTFGQGTKLEIKRTVAAPSVFIFPPSDEQLKSGTASVVCLLNNFYPREAKVQWKVDNALQSGNSQESVTEQDSKDSTYSLSSTLTLSKADYEKHKVYACEVTHQGLSSPVTKSFNRGEC
chain: not shown
Turning to B4, in the assay with human CD38 on cells [3], the “T cell redirected killing of Daudi cells, RDL-FACS method, EC50” value worked out at 0.0018 nM.

B5: humanized 9G7 best-fit antibody (antibody, human IgG1, kappa, V domains shown)
VH: QVTLKESGPTLVKPTQTLTLTCTFSGLSLSTSGKGVGWIRQPPGKALEWLAHIWWDDDKRYNPALKSRLTITKDTSKNQVVLTMTNMDPVDTATYYCARIELGRSYVMDYWGQGTLVTVSS
VL: DIQMTQSPSSLSASVGDRVTITCQASQDVITSVAWYQQKPGKAPKLLIYSASYRYTGVPSRFSGSGSGTDFTFTISSLQPEDIATYYCQQHYTIPLTFGQGTKLEIKR
notes: Human IgG1; light chain carries the F36Y back mutation (Kabat); also called 9G7 best-fit F36Y humanized variant
For B5, the figures for the Kd in assay [2] and in assay [4] were 0.5 nM and 3.2 nM, respectively. Also, the “fold improvement of affinity over the first prototype” value in [5] is 2 fold.

B6: BTB homodimer construct lacking the VH3 based scFv (other)
chain: DKTHTCPPCPAPEAAGGPSVFLFPPKPKDTLMISRTPEVTCVVVDVSHEDPEVKFNWYVDGVEVHNAKTKPREEQYNSTYRVVSVLTVLHQDWLNGKEYKCKVSNKALPAPIEKTISKAKGQPREPEVATFPPSRDELTKNQVTLVCLVTGFYPSDIAVEWESNGQPENNYKTDPPLLESQGSFALSSRLRVDKSRWQQGNVFSCSVMHEALHNHYTQKSLSLSPGK
notes: Human IgG1 Fc region with the BTB CH3 domain carrying D401Q
In the case of B6, the binding result with Protein G and with Protein A was “no binding” in each case.

B7: VH8-VL4 (scFv)
scFv-Fc chain: EVQLVESGGGLVQPGGSLRLSCAASGYTFTRYTMHWVRQAPGKGLEWIGYINPSRGYTYYADSVKGRFTLSTDKSKNTAYLQMNSLRAEDTAVYYCARYYDDHYCLDYWGQGTLVTVSSGGGGSGGGGSGGGGSGGGASDIQLTQSPSSLSASVGDRVTITCRASSSVSYVAWYQQKPGKAPKRWIYDTSKLYSGVPSRFSGSRSGTDYTLTISSLQPEDFATYYCQQWSSNPPTFGQGTKVEIK
notes: also called humanized OKT3 VH8-VL4 scFv-Fc fusion; hOKT3 VH8-VL4 scFv Fc
B7: the binding result in [6] is “binds”.

B8: VH8-VL8 (scFv)
scFv-Fc chain: EVQLVESGGGLVQPGGSLRLSCAASGYTFTRYTMHWVRQAPGKGLEWIGYINPSRGYTYYADSVKGRFTLSTDKSKNTAYLQMNSLRAEDTAVYYCARYYDDHYCLDYWGQGTLVTVSSGGGGSGGGGSGGGGSGGGASDIQLTQSPSSLSASVGDRVTITCRASSSVSYVAWYQQKPGKAPKRWIYDTSKLYSGVPSRFSGSGSGTDYTLTISSLQPEDFATYYCQQWSSNPPTFGQGTKVEIK
notes: also called humanized OKT3 VH8-VL8 scFv-Fc fusion; hOKT3 VH8-VL8 scFv Fc
With B8, in assay [6], the binding result is given as “binds”.

B9: chimeric 9G7 antibody (antibody, human IgG1, kappa, V domains shown)
VH: QVTLKESGPGILQPSQTLSLTCSFSGLSLSTSGKGVGWIRQPSGKGLEWLAHIWWDDDKRYNPALKSRLTISKDTSSNQVFLKIASVDTADTATYYCARIELGRSYVMDYWGQGTTVTVSS
VL: DIVMTQSHKFMSTSVGDRVSISCKASQDVITSVAWFQQKPGQSPKLLIYSASYRYTGVPDRFTGSGSGTDFTFTISSVQAEDLAVYYCQQHYTIPLTFGAGTKLELKR
B9 displayed a dissociation constant Kd in assay [7] of 1 nM.
